Data taken from PMC4699388.

Key:
GATA-1^S310A (human) [1] = target: GATA-1^S310A (human) (UniProt P15976); assay: co-IP
GATA-1^S310A (human) [2] = target: GATA-1^S310A (human) (UniProt P15976)

UniProt P15976, sequence (P15976 whole entry S310A): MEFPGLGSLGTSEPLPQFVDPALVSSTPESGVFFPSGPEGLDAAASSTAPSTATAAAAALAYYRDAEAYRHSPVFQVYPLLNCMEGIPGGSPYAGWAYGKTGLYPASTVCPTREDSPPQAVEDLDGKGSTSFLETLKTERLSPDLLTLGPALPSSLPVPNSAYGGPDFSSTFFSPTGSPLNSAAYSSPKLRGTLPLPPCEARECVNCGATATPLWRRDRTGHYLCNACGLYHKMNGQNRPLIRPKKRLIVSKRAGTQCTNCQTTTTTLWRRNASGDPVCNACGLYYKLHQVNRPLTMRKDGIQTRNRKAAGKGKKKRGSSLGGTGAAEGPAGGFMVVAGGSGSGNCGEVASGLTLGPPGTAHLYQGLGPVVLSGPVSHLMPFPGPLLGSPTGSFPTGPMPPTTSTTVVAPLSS

For “FOG-1 (mouse), in NIH-3T3 cells (from UniProt O35615 1-995) (natural protein)”, the rate of binding to FOG-1 (GATA-1^S310A (human) [1]) was 62 and the relative affinity against wild-type GATA-1 (fold less) (GATA-1^S310A (human) [2]) was 25 fold.
